Target: pooled human IgG

| Protein | Enzyme Activity Endpoint Assay: Fab′2 [ng/µL] | Enzyme Activity Endpoint Assay: Fc [ng/µL] | Enzyme Activity Endpoint Assay: IgG [ng/µL] | Enzyme Activity Endpoint Assay: scIgG [ng/µL] |
| --- | --- | --- | --- | --- |
| PRT-589 (protein) MRNQTTTYSEVTPSHITSVWTKGVTPPEQFIQGEDVFHAPYIANQGWYDITKTFNGKDDLLCGAATAGNMLHWWFDQNKEQIENYLKKHPEKQKINFNNEEMFDVREAINTKDSQTDSALFSYFKDKAFPYLSAKHLGVFPDHVIDMFINGYRLSLTNHDKTDVNRGTKDPRGGIFDAVFTRGDQSKLLTARHDFKNKTLKEISDLIKQELTEGKALGLSHTYANVRINHVINLWGADFDAEGNLEAIYVTDSDSNASIGMKKYYVGVNSAGKVAISAKKIEGDNIGAQVLGLFTLSTGQDIWQQTNLEHHHHHH | 863 | 352 | 0 | 0 |
| PRT-285 (protein) MVTSVWTKGVTPPAKFTQGEDVFHAPYDANQGWYDITKTFNGKDDLLCGAATAGNMLHWWFDQNKEKIEAYLKKHPDKQKIMFGDQELLDVRKVINTKGDQTNSELFNYFRDKAFPGLSARRIGVMPDLVLDMFINGYYLNVYKTQTTDVNRTYQEKDRRGGIFDAVFTRGDQSKLLTSRHDFKEKNLKEISDLIKKELTEGKALGLSHTYANVRISHVINLWGADFDSNGNLKAIYVTDSDSNASIGMKKYGVGVNSAGKVAISAKEIKEDNIGAQVLGLFTLSTGQDSWNQTN | 0 | 0 | 1320 | 0 |
| PRT-277 (protein) MVTSVWTKGVTPPTDFIYGEDVLHAPYKAGQGWYDITKLFNGKDNLLCGAATAGNMLHWWFDQNKEQIENYLKKHPEKQKIIFNNQELFDLKAAIDTKDSQLDSKLFEYFLEKAFPNLSTKHLGVFPDHVIDMFINGYRLSLLNHGPTPVKRGSKDKRGGIFDAVFTRGVQSKLLTNRHDLKNKTLKEISDLIKQELTEGKALGISHTYANGRINHVINLWGADFDAEGNLEAIAVTDSDTNASIGMKKYFVGVNSSGKVAISAKEIEEDNIGAQVLGLFTLSTGQDIWNQTN | 19 | 160 | 401 | 705 |
| PRT-33 (protein) MANQEIRYSEVTPYHVTSVWTKGVTPPANFTQGEDVFHAPYVANQGWYDITKTFNGKDDLLCGAATAGNMLHWWFDQNKDQIKRYLKEHPEKQKINFNGEQMFDVKEAIDTKNHQLDSKLFEYFKEKAFPYLSTKHLGVFPDHVIDMFINGYRLSLTNHGPTPVKEGSKDPRGGIFDAVFTRGDQSKLLTSRHDFKEKNLKEISDLIKKELTEGKALGLSHTYANVRINHVINLWGADFDSNGNLKAIYVTDSDSNASIGMKKYFVGVNSAGKVAISAKEIKEDNIGAQVLGLFTLSTGQDSWNQTN | 26 | 93 | 17 | 44 |
| PRT-36 (protein) MANQEIRYSEVTPYHVTSVWTKGVTPPANFTQGEDVFHAPYVANQGWYDITKTFNGKDDLLCGAATAGNMLHWWFDQNKDQIKRYLEEHPEKQKINFNGEQMFDVKEAIDTKNHQTDSKLFEYFKEKAFPYLSTKHLGVFPDHVIDMFINGYRLSLTNHGPTPVKEGSKDPRGGIFDAVFTRGDQSKLLTSRHDFKEKNLKEISDLIKKELTEGKALGLSHTYANVRINHVINLWGADFDSNGNLKAIYVTDSDSNASIGMKKYFVGVNSAGKVAISAKEIKEDNIGAQVLGLFTLSTGQDSWNQTN | 48 | 123 | 15 | 16 |
| PRT-38 (protein) MANQEIRYSEVTPYHVTSVWTKGVTPPANFTQGEDVFHAPYVANQGWYDITKTFNGKDDLLCGAATAGNMLHWWFDQNKDQIKRYLEEHPEKQKINFNGEQMFDVKEAIDTKNHQLDSKLFEYFKEKAFPYLSTKHLGVFPDHVIDMFINGYRLSLTNHGPTPVKEGSKDPRGGIFDAVFTRGDQSKLLTSRHDFKEKNLKEISDLIKKELTEGKALGLSHTYANVRINHVINLWGADFDSNGNLEAIYVTDSDSNASIGMKKYFVGVNSAGKVAISAKEIKEDNIGAQVLGLFTLSTGQDSWNQTN | 46 | 124 | 14 | 15 |
| PRT-39 (protein) MANQEIRYSEVTPYHVTSVWTKGVTPPANFTQGEDVFHAPYVANQGWYDITKTFNGKDDLLCGAATAGNMLHWWFDQNKDQIKRYLEEHPEKQKINFNGEQMFDVKEAIDTKNHQLDSKLFEYFKEKAFPYLSTKHLGVFPDHVIDMFINGYRLSLTNHGPTPVKEGSKDPRGGIFDAVFTRGDQSKLLTSRHDFKEKNLKEISDLIKQELTEGKALGLSHTYANVRINHVINLWGADFDSNGNLKAIYVTDSDSNASIGMKKYFVGVNSAGKVAISAKEIKEDNIGAQVLGLFTLSTGQDSWNQTN | 39 | 116 | 9 | 19 |
| PRT-34 (protein) MANQEIRYSEVTPYHVTSVWTKGVTPPANFTQGEDVFHAPYVANQGWYDITKTFNGKDDLLCGAATAGNMLHWWFDQNKDQIKRYLEEHPEKQKINFNGEQMFDVKEAIDTKNSQLDSKLFEYFKEKAFPYLSTKHLGVFPDHVIDMFINGYRLSLTNHGPTPVKEGSKDPRGGIFDAVFTRGDQSKLLTSRHDFKEKNLKEISDLIKKELTEGKALGLSHTYANVRINHVINLWGADFDSNGNLKAIYVTDSDSNASIGMKKYFVGVNSAGKVAISAKEIKEDNIGAQVLGLFTLSTGQDSWNQTN | 37 | 95 | 10 | 14 |
| PRT-37 (protein) MANQEIRYSEVTPYHVTSVWTKGVTPPANFTQGEDVFHAPYVANQGWYDITKTFNGKDDLLCGAATAGNMLHWWFDQNKDQIKRYLEEHPEKQKINFNGEQMFDVKEAIDTKNHQLDSKLFEYFKEKAFPYLSTKHLGVFPDHVIDMFINGYRLSLTNHGPTPVKEGSKDPRGGIFDAVFTRGDQSKLLTSRHDFKEKTLKEISDLIKKELTEGKALGLSHTYANVRINHVINLWGADFDSNGNLKAIYVTDSDSNASIGMKKYFVGVNSAGKVAISAKEIKEDNIGAQVLGLFTLSTGQDSWNQTN | 4 | 79 | 23 | 69 |
| PRT-35 (protein) MANQEIRYSEVTPYHVTSVWTKGVTPPANFTQGEDVFHAPYVANQGWYDITKTFNGKDDLLCGAATAGNMLHWWFDQNKDQIKRYLEEHPEKQKINFNGEQMFDVKEAIDTKDHQLDSKLFEYFKEKAFPYLSTKHLGVFPDHVIDMFINGYRLSLTNHGPTPVKEGSKDPRGGIFDAVFTRGDQSKLLTSRHDFKEKNLKEISDLIKKELTEGKALGLSHTYANVRINHVINLWGADFDSNGNLKAIYVTDSDSNASIGMKKYFVGVNSAGKVAISAKEIKEDNIGAQVLGLFTLSTGQDSWNQTN | 37 | 104 | 9 | 14 |

Source: patent US20250027068
